Data set [1] concerns phosphatidylcholine (PC) liposomes. Put plainly: Yeast proteome chip probed with PC liposomes. To be noted: liposome binding signal on yeast proteome chip, Cy3-streptavidin detection. The gist of the method:
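Yeast proteome chips incubated 1 h at RT with sonicated liposomes of PC containing 1% (w/w) biotin-DHPE, plus 5% (w/w) of the indicated phosphoinositide where applicable. After PBS washes, bound liposomes detected with Cy3- or Cy5-streptavidin (>30 min, RT, dark) and fluorescence scanned.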

Data set [2] deals with PI(3,4,5)P3 liposomes. Briefly: Yeast proteome chip probed with PI(3,4,5)P3 liposomes. As to conditions: liposome binding signal on yeast proteome chip, Cy3-streptavidin detection.
Data set [3] relates to PI(3,4)P2 liposomes. Briefly: Yeast proteome chip probed with PI(3,4)P2 liposomes. To be noted: liposome binding signal on yeast proteome chip, Cy3-streptavidin detection.
The test system of data set [4] is PI(3)P liposomes. Briefly: Yeast proteome chip probed with PI(3)P liposomes. To be noted: liposome binding signal on yeast proteome chip, Cy3-streptavidin detection.
Data set [5] has as its system PI(4,5)P2 liposomes. Briefly: Yeast proteome chip probed with PI(4,5)P2 liposomes. As to conditions: liposome binding signal on yeast proteome chip, Cy3-streptavidin detection.
Data set [6] deals with PI(4)P liposomes. Put plainly: Yeast proteome chip probed with PI(4)P liposomes. As to conditions: liposome binding signal on yeast proteome chip, Cy3-streptavidin detection.
Data set [7] relates to phospholipids (phosphatidylinositols vs phosphatidylcholine). Briefly: Proteome chip lipid-binding screen, overall analysis of six liposomes (PI/PC specificity). To be noted: phospholipid liposome probes. The text has this: FIGS. 4A-4D. Analysis of the phosphatidylinositol-binding proteins. To determine the phosphatidylinositol (“PI”)-binding specificity of 150 positive proteins, their binding signals were normalized against the corresponding binding signals of phosphatidylcholine (“PC”). Based on the ratios (“PI/PC”), the proteins were grouped into four categories: (A) 30 strong and specific, (B) 43 strong and nonspecific, (C) 19 weak and specific, and (D) 58 weak and nonspecific phosphatidylinositol-binding proteins. The intensity represents the PI/PC signal ratio as shown by the scale in the figure. The column, labeled “10^n” to the right of the PI/PC binding ratios indicates the maximum binding signal intensity (open boxes) and its confidence interval (solid horizontal lines); the numbers indicate the log of the values. Boxes in the three columns to the right of the confidence interval column indicate membrane-associated proteins (“Membrane”), kinases (“Kinase”), and uncharacterized ORFs (“Unknown”), respectively.
To identify PI-binding proteins in yeast, liposomes were used as probes because the liposome provides the most relevant physiological condition to assay the interactors. Six types of liposomes were used. Each contains phosphatidylcholine (“PC”) with 1% (w/w) N-(biotinoyl)-1,2-dihexadecanoyl-sn-glycero-3-phosphoethanolamine, triethylammonium salt (biotin DHPE). The biotinylated lipid serves as a label that can be detected by Cy3-streptavidin (21). In addition to PC, the five other liposomes contain either 5% (w/w) PI(3)P, PI(4)P, PI(3,4)P2, PI(4,5)P2, or PI(3,4,5)P3 (FIG. 3A).
The protein-liposome interaction was assayed as follows. Appropriate amounts of each lipid in chloroform were mixed and dried under nitrogen. The lipid mixture was resuspended in TBS buffer by vortexing. The liposomes were created by sonication. Blocked proteome chips were washed three to five times in PBS buffer, and the extra liquid on the glass surface was removed by tapping the slides vertically on a KIMWIPE™. 200 μl of liposome solution was added to the proteome chip and immediately covered by a hydrophobic plastic cover slip (GRACE BIO-LAB™, USA). After trapped air bubbles were removed, the chip was incubated in a humidity chamber at RT for one hour. To remove the cover slip, the chip was immersed into large volume of PBS buffer (50 ml), so that the slip would float away. The chip was then moved to a second PBS bath (>50 ml) and washed 3×5 min with shaking at RT. After removing extra liquid on the surface of the chip, about 100 μl of Cy3 or Cy5 conjugated streptavidin (PIERCE™, USA; 1:2000 to 1:4000 dilution) was added to the surface and covered by a hydrophobic plastic cover slip (GRACE BIO-LABS™, USA). The chip was incubated for greater than 30 min in the dark at RT. The chip was then washed as described above. To completely remove the liquid on the chip, the chip was spun to dryness at 1500-2000 rpm for 5-10 min at RT.
An algorithm was devised to assist in the identification of positive signals (42). Fifty-two (35%) of the interactors (i.e., lipid-binding proteins) correspond to uncharacterized proteins thus ascribing the first biochemical activities to those proteins.
The interactors (i.e., phospholipid-binding proteins) were grouped in several ways (42). First, the interactors were sorted according to whether they bound lipids strongly or weakly, based on the phospholipid-binding signal relative to the amount of GST (FIG. 4). Slightly more (72%) of the strong lipid binding proteins (FIGS. 4A and 4B) were characterized relative to the weakly binding proteins (54%) (FIGS. 4C and 4D). Many of the strong lipid-binding proteins are membrane-associated, or are predicted to be associated with membranes, whereas fewer of the weaker binding proteins appear to be associated with membranes (FIG. 4, “Membrane” column). […] Moreover, thirteen of the seventeen protein kinases bind very strongly to the phospholipids. […]

Data set [8] concerns the target T1, calmodulin (Homo sapiens, UniProt P0DP23).
T1 construct: purchased CalBiochem, USA
Put plainly: Yeast proteome chip probed with biotinylated calmodulin. Format: binding. As to conditions: biotinylated calmodulin in the presence of calcium. The text has this:
To test for protein-protein interactions, the yeast proteome was probed with calmodulin (11). Calmodulin is a highly conserved calcium-binding protein involved in many calcium-regulated cellular processes and has many known physical partners (Hook et al., 2001, Annu. Rev. Pharmacol. Toxicol. 41:471). The calmodulin probe was biotinylated, and bound probe was detected using Cy3-labeled streptavidin. As a control, the yeast proteome was probed with Cy3-labeled streptavidin alone.
Generally, protein-protein interactions can be assayed as follows. Blocked proteome chips are washed three to five times in PBS buffer, and the extra liquid on the glass surface is removed by tapping the slides vertically on a KIMWIPE™. 200 ∞l of biotinylated protein probe is added to the proteome chip and immediately covered by a hydrophobic plastic cover slip (GRACE BIO-LABS™, USA). After trapped air bubbles are removed, the chip is incubated in a humidity chamber at room temperature (RT) for one hour. To remove the cover slip, the chip is immersed into large volume of PBS buffer (>50 ml), and the slip should float away. The chip is then moved to a second PBS bath (>50 ml) and washed 3×5 min with shaking at RT. After removing extra liquid on the surface of the chip, at least 150 μl of Cy3- or Cy5-conjugated streptavidin (PIERCE™, USA; 1:2000 to 1:4000 dilution) is added to the surface and covered by a hydrophobic plastic cover slip (GRACE BIO-LABS™, USA). The chip is incubated for greater than 30 min in the dark at RT. The chip is then washed as described above. To completely remove the liquid on the chip, the chip is spun to dryness at 1500-2000 rpm for 5-10 min at RT.
• 1. S. Fields, Y. Kohara, D. J. Lockhart, Proc. Natl. Acad. Sci. 96, 8825 (1999); A. Goffeau et al., Science 274, 563 (1996). • 2 P. Ross-Macdonald et al., Nature 402, 413 (1999); J. L., DeRisi, V. R. Iyer, P. O. Brown, Science 278, 680 (1997); E. A. Winzeler et al., Science 285, 901 (1999). P. Uetz et al., Nature 403, 623 (2000); T. Ito et al., Proc. Natl. Acad. Sci. USA. 97, 1143 (2000) • 3 H. Zhu, M. Snyder, Curr. Opin. Chem. Biol. 5, 40 (2001). • 4 M. R. Martzen et al., Science 286, 1153 (1999). • 5 H. Zhu et al., Nat. Genet. 26, 283 (2000). • 6 G. MacBeath, S. L. Schreiber, Science 289, 1760 (2000). • 7 A. Caveman, J. Cell Sci. 113, 3543 (2000). • 8 P. Arenkov et al., Anal. Biochem 278, 123 (2000). • 9 D. A. Mitchell, T. K. Marshall, R. J. Deschenes, Yeast 9, 715 (1993). The expression vector pEGH was created by inserting an RGS-HisX6 epitope tag between the GST gene and the polycloning site of pEG(KG). The yeast ORFs were cloned using the strategy described previously (5), except every step was done in a 96-well format. Plasmid DNAs confirmed by DNA sequencing were reintroduced into both yeast (Y258) and E. coli (DH5a). […] 0.1 mM calcium was present in buffers in all subsequent steps. The chip was washed three times with PBS at RT. Cy3-conjugated streptavidin (Jackson IR, USA) (1:5000 dilution) was added to the chip and incubated for 30 min at RT. After extensive washing, the chip was spun dry and scanned using a microarray scanner; the data was subsequently acquired with the GENEPIX™ array densitometry software (Axon, USA). • 12 S. S. Hook, A. R. Means, Annu. Rev. […]

B1: SNF1: yeast protein kinase, regulator of glucose metabolism, GST-HisX6 fusion (protein, UniProt P06782 1-633, looked up)
Carbon …: MSSNNNTNTAPANANSSHHHHHHHHHHHHHGHGGSNSTLNNPKSSLADGAHIGNYQIVKTLGEGSFGKVKLAYHTTTGQKVALKIINKKVLAKSDMQGRIEREISYLRLLRHPHIIKLYDVIKSKDEIIMVIEYAGNELFDYIVQRDKMSEQEARRFFQQIISAVEYCHRHKIVHRDLKPENLLLDEHLNVKIADFGLSNIMTDGNFLKTSCGSPNYAAPEVISGKLYAGPEVDVWSCGVILYVMLCRRLPFDDESIPVLFKNISNGVYTLPKFLSPGAAGLIKRMLIVNPLNRISIHEIMQDDWFKVDLPEYLLPPDLKPHPEEENENNDSKKDGSSPDNDEIDDNLVNILSSTMGYEKDEIYESLESSEDTPAFNEIRDAYMLIKENKSLIKDMKANKSVSDELDTFLSQSPPTFQQQSKSHQKSQVDHETAKQHARRMASAITQQRTYHQSPFMDQYKEEDSTVSILPTSLPQIHRANMLAQGSPAASKISPLVTKKSKTRWHFGIRSRSYPLDVMGEIYIALKNLGAEWAKPSEEDLWTIKLRWKYDIGNKTNTNEKIPDLMKMVIQLFQIETNNYLVDFKFDGWESSYGDDTTVSNISEDEMSTFSAYPFLHLTTKLIMELAVNSQSN
Take B1: in data set [1], the PC is 1774.37. The “PI(3, 4, 5)P3” value in data set [2] came out at 560.70. In data set [3], the “PI(3, 4)P2” value was found to be 298.26. In addition, the “PI(3)P” value in data set [4] is listed as 202.00. Also, in data set [5], the “PI(4, 5)P2” value is reported as 423.73. Besides, the “PI(4)P” value in data set [6] amounted to 1795.06. The “identified as lipid-binding interactor” value in data set [7] is recorded as “identified”.

B2: Cmp2p: one of the two yeast calcineurins (protein)
chain: MSSDAIRNTEQINAAIKIIENKTERPQSSTTPIDSKASTVAAANSTATETSRDLTQYTLDDGRVVSTNRRIMNKVPAITSHVPTDEELFQPNGIPRHEFLRDHFKREGKLSAAQAARIVTLATELFSKEPNLISVPAPITVCGDIHGQYFDLLKLFEVGGDPATTSYLFLGDYVDRGSFSFECLIYLYSLKLNFNDHFWLLRGNHECKHLTSYFTFKNEMLHKYNLDIYEKCCESFNNLPLAALMNGQYLCVHGGISPELNSLQDINNLNRFREIPSHGLMCDLLWADPIEEYDEVLDKDLTEEDIVNSKTMVPHHGKMAPSRDMFVPNSVRGCSYAFTYRAACHFLQETGLLSIIRAHEAQDAGYRMYKNTKTLGFPSLLTLFSAPNYLDTYNNKAAILKYENNVMNIRQFNMTPHPYWLPDFMDVFTWSLPFVGEKVTEMLVAILNICTEDELENDTPVIEELVGTDKKLPQAGKSEATPQPATSASPKHASILDDEHRRKALRNKILAVAKVSRMYSVLREETNKVQFLKDHNSGVLPRGALSNGVKGLDEALSTFERARKHDLINEKLPPSLDELKNENKKYYEKVWQKVHEHDAKNDSK
modifications: left off: a dimerising Fc or GST
notes: one of the two yeast calcineurins
For B2, the calmodulin binding entry in data set [8] is recorded as “identified”.

B3: Cmk2p: yeast calcium/calmodulin-dependent serine/threonine protein kinase (protein, UniProt P22517 1-447, looked up)
Calcium/calmodulin-dependent …: MPKESEVINSEFHVDVQDPERLNGHPVAKFINKLSGQPESYVNRTNYIFGRTLGAGSFGVVRQARKLSTNEDVAIKILLKKALQGNNVQLQMLYEELSILQKLSHPNIVSFKDWFESKDKFYIVTQLATGGELFDRILSRGKFTEVDAVEIIVQILGAVEYMHSKNVVHRDLKPENVLYVDKSENSPLVIADFGIAKQLKGEEDLIYKAAGSLGYVAPEVLTQDGHGKPCDIWSIGVITYTLLCGYSPFIAESVEGFMEECTASRYPVTFHMPYWDNISIDVKRFILKALRLNPADRPTATELLDDPWITSKRVETSNILPDVKKGFSLRKKLRDAIEIVKLNNRIKRLRNMYSLGDDGDNDIEENSLNESLLDGVTHSLDDLRLQSQKKGGELTEEQMKLKSALTKDAFVQIVKAATKNKHKVLAGEEEDDSKKTLHDDRESKSED
With B3, in data set [8], the calmodulin binding result is “identified”.

(Values after patent US20050182242A1, “Global analysis of protein activities using proteome chips” (priority 2001, published 2005).)
